Measured values published in patent publication EP4428145A1, “ANTIBACTERIAL PEPTIDE” (Sumitomo Chemical Company, Limited, priority 2021, dated 2024).
Primed or numbered codes have the meaning given here. Where no end group is shown, it is not given here. [ ]: non-standard residue; d: D form. Dhb′ = not defined here; Dha = C=C(N)C(=O)O

Columns and labels:
Type in all cases: cell-based, Lactobacillus sakei
L. sakei [1] = test: Wide pH-range stability test, antimicrobial activity after pH treatment, spot-on-lawn (Experiment 6); set-up: key to Antimicrobial activity after pH treatment / Antimicrobial activity, Untreated: -: Without antimicrobial activity; +: With antimicrobial activity; ++: With strong antimicrobial activity; +++: With very strong antimicrobial activity; conditions: for Antimicrobial activity after pH treatment: 30°C
Protocol: (§1) Like in Experiment 1A, antimicrobial activity of the antimicrobial peptide was evaluated by a spot-on-lawn method. As the test bacteria, Lactobacillus sakei (NBRC15893) was used. After overnight culturing, the test bacteria were mixed and diluted with Lactobacilli AOAC agar so as to achieve a density of 4×10^7 CFU/mL, and the resultant was spread over an MRS plate containing 2% agar. The test liquid was spotted on the test bacteria, and incubated overnight at 30°C. The size of the growth inhibition circle of L. sakei was evaluated as the antimicrobial activity.
Each peptide was redissolved and prepared in the following buffer; Sodium acetate-acetic acid (50 mM, pH4.0), Sodium phosphate (50 mM, pH7.4), glycine-NaOH (50 mM, pH10.0). The test solution thus prepared at the above-specified pH was incubated at 30°C. The duration of the incubation was 0 hours, 0.5 hours, 2 hours, 4 hours, 6 hours, and 24 hours, and at the completion of the incubation, TFA was added in a final concentration of 0.2%. […] By the same spot-on-lawn method as adopted in the above-mentioned antimicrobial activity test, the polypeptide was added in drops to form a growth inhibition circle of L. sakei, and thereby the antimicrobial activity of the polypeptide after pH treatment was evaluated. As a positive control (PC), culture supernatant of a nisin A-producing lactic acid bacterium (Lactococcus lactis ATCC-11454 strain) was used. A sample that was prepared solely with a 0.2% TFA aqueous solution was used as an untreated control.
(§2) Nisin A used in Examples was Nisin from Lactococcus lactis 2.5% (manufactured by Sigma-Aldrich corporation) that was used after concentration and purification. The details of nisin A are as described by J. C. Slootweg et al., J. Pept. Sci., 19, 692-699(2013). To 1 g of commercially available 2.5% nisin A (containing about 25 mg of nisin A), 25 mL of water was added, and the resultant was stirred for 15 minutes at room temperature. Centrifugation (15 minutes, 2500 rpm) was carried out to separate off the precipitate, and only the supernatant was transferred to another tube. To the resulting solution, 20 mL of dichloromethane was added. To collect the white precipitate that was present between the aqueous layer and the organic layer, the upper layer and the lower layer were removed. Another round of centrifugation (15 minutes, 2500 rpm) was carried out to remove, again, the upper layer and the lower layer. The intermediate layer that was sought after was dried in a reduced-pressure centrifuge and re-dissolved in 7.45 mL of water, and thereby a 1-mM purified Nisin product was obtained. The resulting purified product was used as nisin A in each stability test.

L. sakei [2] = test: Thermal stability test, antimicrobial activity after heat treatment, spot-on-lawn (Experiment 7); set-up: key to Antimicrobial activity after heat treatment / Antimicrobial activity, Untreated: -: Without antimicrobial activity; +: With antimicrobial activity; ++: With strong antimicrobial activity; +++: With very strong antimicrobial activity; conditions: for thermal stability of antimicrobial activity: result in words
Protocol: as §1, §2
The test solution was subjected to heat treatment at 80°C for 10 minutes, or at 80°C for 30 minutes, or at 100°C for 10 minutes, or at 100°C for 30 minutes, or at 121°C for 15 minutes. By the same spot-on-lawn method as adopted in the above-mentioned antimicrobial activity test, the polypeptide was added in drops to form a growth inhibition circle of L. sakei, and thereby the antimicrobial activity of the polypeptide after heat treatment was evaluated. As a positive control (PC), culture supernatant of a nisin A-producing lactic acid bacterium (Lactococcus lactis ATCC-1 1454 strain) was used. A sample without the heat process was used as an untreated control.

L. sakei [3] = test: Oxidation stability test, antimicrobial activity after hydrogen peroxide treatment, spot-on-lawn (Experiment 8); set-up: key to Antimicrobial activity, Before oxidation treatment / Antimicrobial activity, After oxidation treatment: -: Without antimicrobial activity; +: With antimicrobial activity; ++: With strong antimicrobial activity; +++: With very strong antimicrobial activity; conditions: for Antimicrobial activity, After oxidation treatment: 1-mM solution treated with 10 mM hydrogen peroxide at 40°C for 6 hours
Protocol: as §1, §2
The method of oxidation treatment is as described by Toshihiro T. et al., J. Proteome Res., 12, 753-762(2013). To a 1-mM solution of lactobacin A or nisin A, hydrogen peroxide was added to achieve a final concentration of 10 mM, followed by reaction at 40°C for 6 hours. After the completion of reaction, the reaction liquid was diluted with water to achieve a polypeptide concentration of 10 µM or 1 µM. By the same spot-on-lawn method as adopted in the above-mentioned antimicrobial activity test, the polypeptide was added in drops to form a growth inhibition circle of L. sakei, and thereby the antimicrobial activity of the polypeptide after oxidation treatment was evaluated. Development of the oxidation reaction was calculated as a relative value of the peak area obtained by LC/MS measurement of the oxidation-treated test solution relative to the non- oxidation-treated test solution. As a positive control (PC), culture supernatant of a nisin A-producing lactic acid bacterium (Lactococcus lactis ATCC-11454 strain) was used.

nisin A (I[Dhb′]SI[Dha]LCTPGCKTGALMGCNMKTATCHCSIHV[Dha]K; thioether (positions not given here); not fully specified (some residues, bridges); also: lanthionine thioether crosslinks and dehydro residues, not placed; UniProt P13068 24-57, looked up) [Nisin from Lactococcus lactis 2.5% (Sigma-Aldrich) used after concentration and purification; known antimicrobial peptide]
Antimicrobial activity after pH treatment (L. sakei [1]; 10 µM, pH 4.0, 0 hr): ++ | Antimicrobial activity after pH treatment (L. sakei [1]; 10 µM, pH 4.0, 0.5 hr): ++ | Antimicrobial activity after pH treatment (L. sakei [1]; 10 µM, pH 4.0, 2 hr): ++ | Antimicrobial activity after pH treatment (L. sakei [1]; 10 µM, pH 4.0, 4 hr): + | Antimicrobial activity after pH treatment (L. sakei [1]; 10 µM, pH 4.0, 6 hr): + | Antimicrobial activity after pH treatment (L. sakei [1]; 10 µM, pH 4.0, 24 hr): + | Antimicrobial activity after pH treatment (L. sakei [1]; 10 µM, pH 7.4, 0 hr): - | Antimicrobial activity after pH treatment (L. sakei [1]; 10 µM, pH 7.4, 0.5 hr): - | Antimicrobial activity after pH treatment (L. sakei [1]; 10 µM, pH 7.4, 2 hr): - | Antimicrobial activity after pH treatment (L. sakei [1]; 10 µM, pH 7.4, 4 hr): - | Antimicrobial activity after pH treatment (L. sakei [1]; 10 µM, pH 7.4, 6 hr): - | Antimicrobial activity after pH treatment (L. sakei [1]; 10 µM, pH 7.4, 24 hr): - | Antimicrobial activity after pH treatment (L. sakei [1]; 10 µM, pH 10.0, 0 hr): - | Antimicrobial activity after pH treatment (L. sakei [1]; 10 µM, pH 10.0, 0.5 hr): + | Antimicrobial activity after pH treatment (L. sakei [1]; 10 µM, pH 10.0, 2 hr): - | Antimicrobial activity after pH treatment (L. sakei [1]; 10 µM, pH 10.0, 4 hr): - | Antimicrobial activity after pH treatment (L. sakei [1]; 10 µM, pH 10.0, 6 hr): - | Antimicrobial activity after pH treatment (L. sakei [1]; 10 µM, pH 10.0, 24 hr): - | Antimicrobial activity, Untreated (L. sakei [1]; 10 µM, untreated control prepared solely with 0.2% TFA aqueous solution): ++ | pH stability of antimicrobial activity (L. sakei [1]; result in words, neutral range and alkaline range): lost its antimicrobial activity | Antimicrobial activity after heat treatment (L. sakei [2]; 10 µM, 80°C 10 mm): + | Antimicrobial activity after heat treatment (L. sakei [2]; 10 µM, 80°C 30 min): - | Antimicrobial activity after heat treatment (L. sakei [2]; 10 µM, 100°C 10 min): - | Antimicrobial activity after heat treatment (L. sakei [2]; 10 µM, 100°C 30 min): - | Antimicrobial activity after heat treatment (L. sakei [2]; 10 µM, 121°C 15 min): - | Antimicrobial activity, Untreated (L. sakei [2]; 10 µM, sample without the heat process): ++ | thermal stability of antimicrobial activity (L. sakei [2]; any heat treatment beyond 80°C for 10 minutes): lost its antimicrobial activity | thermal stability of antimicrobial activity (L. sakei [2]; heat treatment at 80°C for 10 minutes): retained its activity | Antimicrobial activity, Before oxidation treatment (L. sakei [3]; 1 µM): + | Antimicrobial activity, Before oxidation treatment (L. sakei [3]; 10 µM): ++ | Antimicrobial activity, After oxidation treatment (L. sakei [3]; diluted to 1 µM): - | Antimicrobial activity, After oxidation treatment (L. sakei [3]; diluted to 10 µM): - | oxidation stability of antimicrobial activity (L. sakei [3]; result in words, after oxidation treatment with 10-mM hydrogen peroxide): lost its antimicrobial activity
